Data set [1] in a line: Isoelectric point by CIEF (capillary isoelectric focusing). The conditions noted are these: determined by CIEF. Format: physicochemical. The source says:
3) Determining isoelectric point of immuno-modulating polypeptide by CIEF.
The foresaid methods 2)-5) are the normal methods known as those skilled in the art.

Another data set concerns mice spleen lymphocyte. The data set can be described thus: Stimulating lymphocyte proliferation in vitro (MTT method). Format: cell-based. As to conditions: mice spleen lymphocyte suspension, 68 h + 4 h MTT, OD 570 nm; chromatography fractions screened; values only in figures; listed as component 4. As for the experimental part:
1) Stimulating Lymphocyte Proliferation in vitro
Culturing Cells • 1 Preparing Spleen Lymphocyte Suspension:
Remove out the mice spleen under sterile condition, separate lymphocyte by lymphocyte separation medium, regulate the cell concentration to 1×10^6/ml with complete 1640 culture solution. • 2 Experiment Arrangement:
Set control group and experiment group separately to identify the activity of stimulating spleen lymphocyte proliferation by every component. • 3. Experiment Method:
Add 100 μL mice spleen lymphocyte suspension (1×10^6/mL) to 96 well cultured plates. Add 100 μL saline/sample to control group and experiment group separately. Mix to homogenous gently, culture in incubator for 68 h at 37° C. under 5% CO2. Add 20 μl MTT to every well under sterile condition, Mix to homogenous gently, continue to culture for 4 h, add 100 μl dimethyl sulfoxide to every well, keep at room temperature for 10 min, then determine OD of every well by ELISA at 570 nm. • 4. Data Processing
The spleen lymphocyte proliferation rate of experiment group is calculated by the following formula: […]
The value of P is calculated by variance analysis, and significant difference is calculate by T test.
(In general: Formazan colour is commonly taken as a measure of viable cells.)

“Also recorded” adds a separate entry of the source.

For the substance “Tyr-X-Phe-Leu-Gly-Leu-Pro-Gly-X-Thr [immuno-modulating polypeptide]”, in data set [1], the isoelectric point is on record as 3.82. Besides, the “activity determined by stimulating lymphocyte proliferation in vitro” value in the data set on mice spleen lymphocyte was “high-purity inmmuno-modulating polypeptide; also recorded: high-purity immuno-modulating polypeptide”.

The record behind these values is patent US20080319163A1, “Method for Isolating and Purifying Immuno-Modulating Polypeptide from Cow Placenta” (priority 2005, published 2008).
